Assay results as given in US20200115430A1 (I2O THERAPEUTICS, published 2020).
Starred links: 1 amine or outer side, 2 acyl side, 3 side chain; linkers in the order of their positions; H or OH if unused. Positions of bridges follow the written chain, without caps; N, C: chain ends. Non-standard residues stand in square brackets, D forms with d. Groups on a side chain read outwards from the residue. Primed or numbered codes have the meaning given here. No end group written: not given here. *: point of attachment. dpeg″ = —[CO(CH2)O(CH2)2O(CH2)NH]— spacer unit, O=C(COCCOCN[*:1])[*:2]; C20 diacid = O=C(O)CCCCCCCCCCCCCCCCCCC(=O)*; C18 diacid = O=C(O)CCCCCCCCCCCCCCCCC(=O)*; γGlu = O=C(O)[C@H](CCC(=O)[*:2])N[*:1]; Stearoyl = CCCCCCCCCCCCCCCCCC(=O)*; Palmitoyl = CCCCCCCCCCCCCCCC(=O)*

T1: human calcitonin receptor (human, UniProt P30988 25-474)
T1 sequence (looked up): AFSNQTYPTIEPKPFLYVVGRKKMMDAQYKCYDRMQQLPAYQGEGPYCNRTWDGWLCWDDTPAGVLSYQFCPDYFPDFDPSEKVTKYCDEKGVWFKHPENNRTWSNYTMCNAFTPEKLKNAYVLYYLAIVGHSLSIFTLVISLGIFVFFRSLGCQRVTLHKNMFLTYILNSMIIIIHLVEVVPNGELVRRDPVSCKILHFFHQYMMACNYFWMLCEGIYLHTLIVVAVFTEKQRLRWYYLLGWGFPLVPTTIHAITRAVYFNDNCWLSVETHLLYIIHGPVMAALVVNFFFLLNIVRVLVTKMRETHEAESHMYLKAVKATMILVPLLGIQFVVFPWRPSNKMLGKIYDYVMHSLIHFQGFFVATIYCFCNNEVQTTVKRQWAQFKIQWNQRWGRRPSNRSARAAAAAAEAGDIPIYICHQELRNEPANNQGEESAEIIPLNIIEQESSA

T2: human amylin 3 receptor (human, UniProt P30988 25-474; O60896 24-148)
T2 sequence (looked up) 1: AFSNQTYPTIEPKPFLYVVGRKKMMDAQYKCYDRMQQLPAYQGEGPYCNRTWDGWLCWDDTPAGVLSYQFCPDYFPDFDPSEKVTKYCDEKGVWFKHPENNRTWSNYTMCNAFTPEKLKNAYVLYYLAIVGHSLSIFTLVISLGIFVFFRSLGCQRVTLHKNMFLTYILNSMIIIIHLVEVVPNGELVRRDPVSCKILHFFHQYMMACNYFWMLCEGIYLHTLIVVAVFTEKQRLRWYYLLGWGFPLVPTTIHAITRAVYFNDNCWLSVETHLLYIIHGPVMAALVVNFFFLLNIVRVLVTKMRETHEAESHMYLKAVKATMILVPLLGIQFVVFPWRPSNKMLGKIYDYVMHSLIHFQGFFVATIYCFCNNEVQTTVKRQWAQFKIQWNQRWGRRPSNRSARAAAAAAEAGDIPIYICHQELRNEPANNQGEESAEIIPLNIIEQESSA
T2 sequence (looked up) 2: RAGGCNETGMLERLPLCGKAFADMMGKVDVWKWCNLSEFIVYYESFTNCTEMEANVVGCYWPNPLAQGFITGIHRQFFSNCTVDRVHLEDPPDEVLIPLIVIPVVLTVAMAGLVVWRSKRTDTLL


Tests used:
[1] = target: T1, human calcitonin receptor; test: cell-based or functional assay
human amylin 3 receptor = target: T2, human amylin 3 receptor; test: cell-based or functional assay

pEC50 (cAMP accumulation), 0% HSA [1] [pEC50]	pEC50 (cAMP accumulation), 0.1% HSA [1] [pEC50]	pEC50 (cAMP accumulation), 4% HSA [1] [pEC50]	pEC50 (cAMP accumulation), 0% HSA (human amylin 3 receptor) [pEC50]	pEC50 (cAMP accumulation), 0.1% HSA (human amylin 3 receptor) [pEC50]	pEC50 (cAMP accumulation), 4% HSA (human amylin 3 receptor) [pEC50]	Binder
10.9	8.5	7.5	11.6	9.3	8	K([γGlu-γGlu-dpeg″-dpeg″-γGlu-C20 diacid])CNTSTCATQRLANELHKSSNNFGPILPPTKVGSETY-NH2 (disulfide 2-7) [Compound A112]
10.4	8.5	7.6	10.9	9.5	8.6	SCNTSTCATQRLANELK([dpeg″-dpeg″-γGlu-C18 diacid])KSSNNFGPILPPTKVGSETY-NH2 (disulfide 2-7; N-terminus assumed; SMILES CC[C@H](C)[C@H](NC(=O)[C@@H]1CCCN1C(=O)CNC(=O)[C@H](Cc1ccccc1)NC(=O)[C@H](CC(N)=O)NC(=O)[C@H](CC(N)=O)NC(=O)[C@H](CO)NC(=O)[C@H](CO)NC(=O)[C@H](CCCCN)NC(=O)[C@H](CCCCNC(=O)COCCOCNC(=O)COCCOCNC(=O)CC[C@H](NC(=O)CCCCCCCCCCCCCCCCC(=O)O)C(=O)O)NC(=O)[C@H](CC(C)C)NC(=O)[C@H](CCC(=O)O)NC(=O)[C@H](CC(N)=O)NC(=O)[C@H](C)NC(=O)[C@H](CC(C)C)NC(=O)[C@H](CCCNC(=N)N)NC(=O)[C@H](CCC(N)=O)NC(=O)[C@@H](NC(=O)[C@H](C)NC(=O)[C@@H]1CSSC[C@H](NC(=O)[C@@H](N)CO)C(=O)N[C@@H](CC(N)=O)C(=O)N[C@@H]([C@@H](C)O)C(=O)N[C@@H](CO)C(=O)N[C@@H]([C@@H](C)O)C(=O)N1)[C@@H](C)O)C(=O)N[C@@H](CC(C)C)C(=O)N1CCC[C@H]1C(=O)N1CCC[C@H]1C(=O)N[C@H](C(=O)N[C@@H](CCCCN)C(=O)N[C@H](C(=O)NCC(=O)N[C@@H](CO)C(=O)N[C@@H](CCC(=O)O)C(=O)N[C@H](C(=O)N[C@@H](Cc1ccc(O)cc1)C(N)=O)[C@@H](C)O)C(C)C)[C@@H](C)O) [Compound A99]
10.5	8.1	7.1	11.1	8.8	7.6	SCNTSTCATQRLAN[dK]([γGlu-γGlu-dpeg″-γGlu-C20 diacid])LHKSSNNFGPILPPTKVGSETY-NH2 (disulfide 2-7) [Compound A100]

Second part, the binder before the results:

Binder	pEC50 (cAMP accumulation), 0% HSA [1] [pEC50]	pEC50 (cAMP accumulation), 0.1% HSA [1] [pEC50]	pEC50 (cAMP accumulation), 4% HSA [1] [pEC50]	pEC50 (cAMP accumulation), 0% HSA (human amylin 3 receptor) [pEC50]	pEC50 (cAMP accumulation), 0.1% HSA (human amylin 3 receptor) [pEC50]	pEC50 (cAMP accumulation), 4% HSA (human amylin 3 receptor) [pEC50]
K([γGlu-γGlu-C20 diacid])CNTSTCATQRLANELHKSSNNFGPILPPTKVGSETY-NH2 (disulfide 2-7; N-terminus assumed; SMILES CC[C@H](C)[C@H](NC(=O)[C@@H]1CCCN1C(=O)CNC(=O)[C@H](Cc1ccccc1)NC(=O)[C@H](CC(N)=O)NC(=O)[C@H](CC(N)=O)NC(=O)[C@H](CO)NC(=O)[C@H](CO)NC(=O)[C@H](CCCCN)NC(=O)[C@H](Cc1c[nH]cn1)NC(=O)[C@H](CC(C)C)NC(=O)[C@H](CCC(=O)O)NC(=O)[C@H](CC(N)=O)NC(=O)[C@H](C)NC(=O)[C@H](CC(C)C)NC(=O)[C@H](CCCNC(=N)N)NC(=O)[C@H](CCC(N)=O)NC(=O)[C@@H](NC(=O)[C@H](C)NC(=O)[C@@H]1CSSC[C@H](NC(=O)[C@@H](N)CCCCNC(=O)CC[C@H](NC(=O)CC[C@H](NC(=O)CCCCCCCCCCCCCCCCCCC(=O)O)C(=O)O)C(=O)O)C(=O)N[C@@H](CC(N)=O)C(=O)N[C@@H]([C@@H](C)O)C(=O)N[C@@H](CO)C(=O)N[C@@H]([C@@H](C)O)C(=O)N1)[C@@H](C)O)C(=O)N[C@@H](CC(C)C)C(=O)N1CCC[C@H]1C(=O)N1CCC[C@H]1C(=O)N[C@H](C(=O)N[C@@H](CCCCN)C(=O)N[C@H](C(=O)NCC(=O)N[C@@H](CO)C(=O)N[C@@H](CCC(=O)O)C(=O)N[C@H](C(=O)N[C@@H](Cc1ccc(O)cc1)C(N)=O)[C@@H](C)O)C(C)C)[C@@H](C)O) [Compound A64]	11.2	9	8.1	12	10.4	9.1
SCNTSTCATQRLANE[dK]([γGlu-γGlu-γGlu-Stearoyl])HKSSNNFGPILPPTKVGSETY-NH2 (disulfide 2-7; N-terminus assumed; SMILES CCCCCCCCCCCCCCCCCC(=O)N[C@@H](CCC(=O)N[C@@H](CCC(=O)N[C@@H](CCC(=O)NCCCC[C@@H](NC(=O)[C@H](CCC(=O)O)NC(=O)[C@H](CC(N)=O)NC(=O)[C@H](C)NC(=O)[C@H](CC(C)C)NC(=O)[C@H](CCCNC(=N)N)NC(=O)[C@H](CCC(N)=O)NC(=O)[C@@H](NC(=O)[C@H](C)NC(=O)[C@@H]1CSSC[C@H](NC(=O)[C@@H](N)CO)C(=O)N[C@@H](CC(N)=O)C(=O)N[C@@H]([C@@H](C)O)C(=O)N[C@@H](CO)C(=O)N[C@@H]([C@@H](C)O)C(=O)N1)[C@@H](C)O)C(=O)N[C@@H](Cc1c[nH]cn1)C(=O)N[C@@H](CCCCN)C(=O)N[C@@H](CO)C(=O)N[C@@H](CO)C(=O)N[C@@H](CC(N)=O)C(=O)N[C@@H](CC(N)=O)C(=O)N[C@@H](Cc1ccccc1)C(=O)NCC(=O)N1CCC[C@H]1C(=O)N[C@H](C(=O)N[C@@H](CC(C)C)C(=O)N1CCC[C@H]1C(=O)N1CCC[C@H]1C(=O)N[C@H](C(=O)N[C@@H](CCCCN)C(=O)N[C@H](C(=O)NCC(=O)N[C@@H](CO)C(=O)N[C@@H](CCC(=O)O)C(=O)N[C@H](C(=O)N[C@@H](Cc1ccc(O)cc1)C(N)=O)[C@@H](C)O)C(C)C)[C@@H](C)O)[C@@H](C)CC)C(=O)O)C(=O)O)C(=O)O) [Compound A13]	11.6	10.3	8.5	12.4	11.4	10.1
SCNTSTCATQRLANE[dK]([γGlu-γGlu-Palmitoyl])HKSSNNFGPILPPTKVGSETY-NH2 (disulfide 2-7; N-terminus assumed; SMILES CCCCCCCCCCCCCCCC(=O)N[C@@H](CCC(=O)N[C@@H](CCC(=O)NCCCC[C@@H](NC(=O)[C@H](CCC(=O)O)NC(=O)[C@H](CC(N)=O)NC(=O)[C@H](C)NC(=O)[C@H](CC(C)C)NC(=O)[C@H](CCCNC(=N)N)NC(=O)[C@H](CCC(N)=O)NC(=O)[C@@H](NC(=O)[C@H](C)NC(=O)[C@@H]1CSSC[C@H](NC(=O)[C@@H](N)CO)C(=O)N[C@@H](CC(N)=O)C(=O)N[C@@H]([C@@H](C)O)C(=O)N[C@@H](CO)C(=O)N[C@@H]([C@@H](C)O)C(=O)N1)[C@@H](C)O)C(=O)N[C@@H](Cc1c[nH]cn1)C(=O)N[C@@H](CCCCN)C(=O)N[C@@H](CO)C(=O)N[C@@H](CO)C(=O)N[C@@H](CC(N)=O)C(=O)N[C@@H](CC(N)=O)C(=O)N[C@@H](Cc1ccccc1)C(=O)NCC(=O)N1CCC[C@H]1C(=O)N[C@H](C(=O)N[C@@H](CC(C)C)C(=O)N1CCC[C@H]1C(=O)N1CCC[C@H]1C(=O)N[C@H](C(=O)N[C@@H](CCCCN)C(=O)N[C@H](C(=O)NCC(=O)N[C@@H](CO)C(=O)N[C@@H](CCC(=O)O)C(=O)N[C@H](C(=O)N[C@@H](Cc1ccc(O)cc1)C(N)=O)[C@@H](C)O)C(C)C)[C@@H](C)O)[C@@H](C)CC)C(=O)O)C(=O)O) [Compound A27]	11.9	10.6	9	12.8	11.8	10.4
SCNTSTCATQRLAN[dK]([γGlu-γGlu-dpeg″-C20 diacid])LHKSSNNFGPILPPTKVGSETY-NH2 (disulfide 2-7; N-terminus assumed; SMILES CC[C@H](C)[C@H](NC(=O)[C@@H]1CCCN1C(=O)CNC(=O)[C@H](Cc1ccccc1)NC(=O)[C@H](CC(N)=O)NC(=O)[C@H](CC(N)=O)NC(=O)[C@H](CO)NC(=O)[C@H](CO)NC(=O)[C@H](CCCCN)NC(=O)[C@H](Cc1c[nH]cn1)NC(=O)[C@H](CC(C)C)NC(=O)[C@@H](CCCCNC(=O)CC[C@H](NC(=O)CC[C@H](NC(=O)COCCOCNC(=O)CCCCCCCCCCCCCCCCCCC(=O)O)C(=O)O)C(=O)O)NC(=O)[C@H](CC(N)=O)NC(=O)[C@H](C)NC(=O)[C@H](CC(C)C)NC(=O)[C@H](CCCNC(=N)N)NC(=O)[C@H](CCC(N)=O)NC(=O)[C@@H](NC(=O)[C@H](C)NC(=O)[C@@H]1CSSC[C@H](NC(=O)[C@@H](N)CO)C(=O)N[C@@H](CC(N)=O)C(=O)N[C@@H]([C@@H](C)O)C(=O)N[C@@H](CO)C(=O)N[C@@H]([C@@H](C)O)C(=O)N1)[C@@H](C)O)C(=O)N[C@@H](CC(C)C)C(=O)N1CCC[C@H]1C(=O)N1CCC[C@H]1C(=O)N[C@H](C(=O)N[C@@H](CCCCN)C(=O)N[C@H](C(=O)NCC(=O)N[C@@H](CO)C(=O)N[C@@H](CCC(=O)O)C(=O)N[C@H](C(=O)N[C@@H](Cc1ccc(O)cc1)C(N)=O)[C@@H](C)O)C(C)C)[C@@H](C)O) [Compound A96]	10.8	8.5	8	11.7	9.7	8.5
